We go through three substances from PMC8273617.

One assay has as its target VWF (Homo sapiens) (UniProt P04275). Conditions: cited from earlier work.
For the next assay, the target named is CD16 (Homo sapiens) (UniProt P08637). As to conditions: cited from earlier work.
Assay [1] addresses Fc gamma receptor IIIA (FcγRIIIA/CD16) on PTA-6967 NK cells (human) (UniProt P08637).
For assay [2] the target is unchanged. This is another data set of the same source.

Fc gamma receptor IIIA (FcγRIIIA/CD16) on PTA-6967 NK cells (human), sequence (P08637 17-254): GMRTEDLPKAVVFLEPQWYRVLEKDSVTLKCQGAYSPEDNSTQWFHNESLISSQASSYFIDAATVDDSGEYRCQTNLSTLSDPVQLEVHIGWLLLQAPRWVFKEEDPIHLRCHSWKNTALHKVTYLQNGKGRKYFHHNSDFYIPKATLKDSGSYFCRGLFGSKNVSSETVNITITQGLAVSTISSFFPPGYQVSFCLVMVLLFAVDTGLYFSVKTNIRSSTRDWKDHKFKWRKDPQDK
FVIII, sequence (P00451 20-2351): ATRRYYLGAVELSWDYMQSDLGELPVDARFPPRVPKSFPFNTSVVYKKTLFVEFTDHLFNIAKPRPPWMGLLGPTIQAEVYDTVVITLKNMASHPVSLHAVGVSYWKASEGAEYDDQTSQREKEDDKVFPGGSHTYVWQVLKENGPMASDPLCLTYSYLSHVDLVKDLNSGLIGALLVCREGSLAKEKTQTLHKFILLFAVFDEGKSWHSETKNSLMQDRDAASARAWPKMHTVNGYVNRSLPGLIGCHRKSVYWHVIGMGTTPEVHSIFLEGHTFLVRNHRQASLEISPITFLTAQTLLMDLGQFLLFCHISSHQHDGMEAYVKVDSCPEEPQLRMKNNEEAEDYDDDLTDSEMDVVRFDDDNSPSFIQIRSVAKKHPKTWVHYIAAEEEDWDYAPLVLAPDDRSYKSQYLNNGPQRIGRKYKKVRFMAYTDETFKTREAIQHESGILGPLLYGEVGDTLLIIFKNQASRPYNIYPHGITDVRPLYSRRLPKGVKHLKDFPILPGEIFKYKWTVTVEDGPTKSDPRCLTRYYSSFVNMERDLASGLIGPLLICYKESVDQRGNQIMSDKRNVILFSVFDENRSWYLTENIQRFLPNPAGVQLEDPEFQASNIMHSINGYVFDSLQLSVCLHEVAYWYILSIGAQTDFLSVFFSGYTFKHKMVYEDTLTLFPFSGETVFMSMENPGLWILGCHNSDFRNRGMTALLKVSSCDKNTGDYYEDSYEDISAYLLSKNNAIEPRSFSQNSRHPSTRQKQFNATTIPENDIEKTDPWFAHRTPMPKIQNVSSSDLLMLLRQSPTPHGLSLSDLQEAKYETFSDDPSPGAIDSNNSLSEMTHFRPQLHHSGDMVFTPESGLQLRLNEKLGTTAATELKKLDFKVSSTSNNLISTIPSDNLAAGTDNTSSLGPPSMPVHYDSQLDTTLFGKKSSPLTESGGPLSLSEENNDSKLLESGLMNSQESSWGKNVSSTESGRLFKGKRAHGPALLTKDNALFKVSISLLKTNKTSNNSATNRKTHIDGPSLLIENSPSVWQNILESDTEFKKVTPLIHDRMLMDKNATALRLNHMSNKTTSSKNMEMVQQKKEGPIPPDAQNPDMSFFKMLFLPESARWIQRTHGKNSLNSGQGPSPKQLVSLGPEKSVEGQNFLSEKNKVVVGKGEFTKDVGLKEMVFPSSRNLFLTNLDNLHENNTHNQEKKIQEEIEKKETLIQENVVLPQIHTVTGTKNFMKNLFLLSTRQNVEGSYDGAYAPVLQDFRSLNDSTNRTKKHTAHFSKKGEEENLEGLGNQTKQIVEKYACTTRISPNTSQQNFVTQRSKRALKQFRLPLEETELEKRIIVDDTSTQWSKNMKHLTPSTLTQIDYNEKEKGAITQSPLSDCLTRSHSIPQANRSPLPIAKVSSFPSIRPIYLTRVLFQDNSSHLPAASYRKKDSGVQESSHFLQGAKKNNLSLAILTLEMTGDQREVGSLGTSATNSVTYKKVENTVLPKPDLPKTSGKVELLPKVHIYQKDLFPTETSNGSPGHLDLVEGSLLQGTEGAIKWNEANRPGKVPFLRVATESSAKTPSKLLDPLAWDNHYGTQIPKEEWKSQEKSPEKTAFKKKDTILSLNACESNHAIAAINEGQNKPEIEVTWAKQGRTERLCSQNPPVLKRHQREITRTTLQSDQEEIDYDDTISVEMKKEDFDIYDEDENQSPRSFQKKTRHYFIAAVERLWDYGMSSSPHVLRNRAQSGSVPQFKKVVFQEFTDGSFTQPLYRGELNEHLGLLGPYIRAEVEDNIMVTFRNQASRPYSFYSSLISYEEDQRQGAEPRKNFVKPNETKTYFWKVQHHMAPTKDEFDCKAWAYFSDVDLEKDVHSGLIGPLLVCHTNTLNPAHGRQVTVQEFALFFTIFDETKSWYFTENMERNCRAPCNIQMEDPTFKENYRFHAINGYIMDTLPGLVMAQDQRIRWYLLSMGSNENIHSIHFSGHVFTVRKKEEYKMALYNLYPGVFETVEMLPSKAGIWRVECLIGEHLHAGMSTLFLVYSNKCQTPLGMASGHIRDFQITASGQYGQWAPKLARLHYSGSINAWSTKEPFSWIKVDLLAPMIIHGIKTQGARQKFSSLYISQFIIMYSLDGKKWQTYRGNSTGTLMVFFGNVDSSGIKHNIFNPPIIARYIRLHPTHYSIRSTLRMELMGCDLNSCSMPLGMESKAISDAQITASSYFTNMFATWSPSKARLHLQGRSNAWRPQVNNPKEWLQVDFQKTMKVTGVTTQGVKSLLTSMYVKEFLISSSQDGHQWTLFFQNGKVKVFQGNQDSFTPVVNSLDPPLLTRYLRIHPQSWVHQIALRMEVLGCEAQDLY
CD16 (Homo sapiens), sequence (P08637 17-254): as the sequence (P08637 17-254) above

The term Kd denotes the concentration at which binding is half-saturated. For FVIII (from UniProt P00451), in the assay with VWF (Homo sapiens), the dissociation constant Kd was 0.2 nM.

As to IgG1 Fc Fc (from UniProt P01857), the equilibrium dissociation constant (Kd) in the assay with CD16 (Homo sapiens) was 1000 nM.

For the substance “recombinant Factor VIII Fc-fusion protein (rFVIIIFc) (Fc fusion)”, the EC50 of IFNγ secretion (ELISA) by CD16^+ NK cells (PTA-6967), overnight, rFVIIIFc 250 nM to 7.6 pM (Figure 2B) in assay [1] was determined as 6.4 nM. In assay [2], this substance displayed a surface CD107a (LAMP1), % LAMP1^+ PTA-6967 NK cells by flow cytometry after 6 hours with 250 nM rFVIIIFc, against untreated cells (Figure 2E) of 8 fold.
